Test results as given in the nanobody polyreactivity screen of Harvey et al. (2022).

Experiment: yeast display, Sf9 membrane polyspecificity reagent, FACS + sequencing; frameworks hold sequencing errors
How it was run: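 A synthetic nanobody library was expressed on Saccharomyces cerevisiae BJ5465 by galactose induction for 36–48 hours. The library was stained for 1 hour at 4 °C with 10% biotinylated, detergent-solubilized Sf9 membrane reagent and enriched with streptavidin microbeads before FACS. Low and high (top ~1%) gates were set on anti-HA fluorescence for expression and streptavidin fluorescence for reagent binding, and each polyreactivity label reflects the gate of origin.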

| Sequence | polyreactivity (PSR sort gate) |
| --- | --- |
| QVQLVESGGGLVQAGGSLRLSCAASGINFVYYAMGWYRQAPGTEREMVAAISKSSGRTYYADSVKGRFTISRDYAKNTVYLQMNSLKPEDTAVYYCNARYRLSPPPLEYWGQGTQVTVSS | high polyreactivity |
| QVQLVESGGGLVQAGGSLRLSCAASGINLAGYVMGGYRQAPGKERDLVADISSSGDSTYYADSVKGRFTISRDNAKNTVYLQMNSLLPEDTAVYYCAAEEIIPLIYKGYPFDYWGQGSQVTVSS | low polyreactivity |
| QVQLVESGGGLVQAGGSLRLSCAASGIPLVSYARGWYRPAPGKVRELVAAISTSGGRTRYADSVKGRFTISRDHAKNTVYIQMNSLKPEDTAVYYCAAELVEPRYNHLPGDGNYWGQGTQVTGSS | high polyreactivity |
| QVQLVESGGGLVQAGGSLRLSCAASGIPRNTMGWYRQAPGKETELVASISTSGGSTYYADSVKGRFTISRDNAKNTVYLQMNSLKPEDTAVYYCAKKGYASRYFIYDYWGQGTQVTVSS | low polyreactivity |
| QVQLVESGGGLVQAGGSLRLSCAASGISFGNYAMGWYRQAPGKERELVATISRSGGSTYYADSVKGRFTISRDNAKNTVYLQMNSLKPEDTAVYYCAAQDARRIVYYRYYYWGQGTQVTVSS | high polyreactivity |
| QVQLVESGGGLVQAGGSLRLSCAASGISFYVNAMGSYRQAPGKERELVVAITQSVDITSYADSVKGRFTISRDNEKNTVYLQMNSLKPEVTAVYYCATRVIQDDNARDYWGQGTQVTVSS | low polyreactivity |
| QVQLVESGGGLVQAGGSLRLSCAASGISYRWYAMGWYRQAPGKERELVAAISSGGSTTYADSVKGRFTISRDNAKNTVYLQMNSLKPEDTAVYYCAARYQWYSADYDYWGQGTQVTVSS | high polyreactivity |
| QVQLVESGGGLVQAGGSLRLSCAASGITFADNARGWYRQAPGKERELVASISNSSGSTYYADSVKGRFTISRDNAKNTVYLQMNSLKPEDTAVYYCATDPYVRRSPSWYDYWGQGTQVTVSS | low polyreactivity |
| QVQLVESGGGLVQAGGSLRLSCAASGITFAKYAMGWYRQAPGKERELVAAISTSGGSTYYADSVKGRFTISRDNAKNTVYLQMNSLKPEDTAVYYCNVDTYIWYYLRYYNYWGQGTQVTVSS | high polyreactivity |
| QVQLVESGGGLVQAGGSLRLSCAASGITFAQYAMGWYRQAPGTERELVAGITRSGGSTHYADSVKGRFTISRDNAKNTVYLQMNSLKPEDTAVYYCNARYPYRGKRKPSDYWGQGTQVTVSS | high polyreactivity |
| QVQLVESGGGLVQAGGSLRLSCAASGITFASYAMGWYRQAPGKERELVAGISGSGGRTYYADSVKGRFTISRDNAKNTVYLQMNSLKPEDTAVYYCAARQWDIRASPPRYYRYDYWGQGTQVTVSS | high polyreactivity |
| QVQLVESGGGLVQAGGSLRLSCAASGITFAWNAMGWYRPAPGKEREFVAAINWSGGSTYYADSVKGRFTISRDNAKNTVYLQMNSLKPEDTAVYYCAAYKRSYYPRTLYDYWGQGTQVTVSS | high polyreactivity |
| QVQLVESGGGLVQAGGSLRLSCAASGITFAYYAKGWYRQAPGKEREFVAAINGGGSTNYADSVKGRFSISRDNAKNTVYLQMNSLKAEDTAVYFCNARRAYRAWYYPYDYWGQGTQVTVSS | high polyreactivity |
| QVQLVESGGGLVQAGGSLRLSCAASGITFAYYAMGWYRQAPGKERELVAAITGDGGSTYYADSVKGRFTISRDNAKNTVYLQMNSLKPEDTAVYYCNAELSDYRYDWWDYDYWGQGTQVTVSS | high polyreactivity |
| QVQLVESGGGLVQAGGSLRLSCAASGITFAYYVMGWYRQAPGKERELVAAINWSGGSTYYADSVKGRFTISRDNAKNTVYLQMNSLKPEDTAVYYCAADWSTWYGEKFYWGQGTQVTVSS | high polyreactivity |
| QVQLVESGGGLVQAGGSLRLSCAASGITFAYYVMGWYRQAPGKERELVAAISRSGSTYYADSVKGRFTISRDNAKNTVYLQMNSLKPEDTAVYYCAVLYIRWYTYEYWGQGTQVTVSS | high polyreactivity |
| QVQLVESGGGLVQAGGSLRLSCAASGITFDANAMGWYRQAPGKERELVARISSGGSTNYADSVKGRFTISRDNAKNTVYLQMNSLKPEDTAVYYCNTDLTGLDAEYDYWGQGTQVTVSS | low polyreactivity |
